# Source: patent US20230416371A1 (Chugai, published 2023)
# B1: EGL-ART6 (H240-Kn462/L73-k0//H240-HI445/L73-k0) (antibody, human IgG1, kappa)
# heavy 1: QDQLVQSGAEVKKPGASVKVSCKASGFNIKDTYIQWVRQAPGQGLEWMGRIDPLRKQTKYREKFEGRVTITADTSTNTAYMELSSLRSEDTAVYYCVRSGREFDYWGQGTLVTVSSASTKGPSVFPLAPSSKSTSGGTAALGCLVKDYFPEPVTVSWNSGALTSGVHTFPAVLQSSGLYSLSSVVTVPSSSLGTQTYICNVNHKPSNTKVDKKVEPKSCDKTHTCPPCPAPEFQWGPMVFLFPPKPKDVLMISRTPEVTCVVVDVSDEEPEVKFNWYVDGVEVHNAKTKPREEQYNATYRVVSVLPVLHQDWLNGKEYKCKVSNDALPAPIEKTISKAKGQPREPQVCTLPPSRDELTKNQVSLWCLVKGFYPSDIAVEWESNGQPENNYKTTPPVLDSDGSFFLYSKLTVDKSRWQQGNVFSCSVMHEALHNHYTQKSLSLSP
# heavy 2: QDQLVQSGAEVKKPGASVKVSCKASGFNIKDTYIQWVRQAPGQGLEWMGRIDPLRKQTKYREKFEGRVTITADTSTNTAYMELSSLRSEDTAVYYCVRSGREFDYWGQGTLVTVSSASTKGPSVFPLAPSSKSTSGGTAALGCLVKDYFPEPVTVSWNSGALTSGVHTFPAVLQSSGLYSLSSVVTVPSSSLGTQTYICNVNHKPSNTKVDKKVEPKSCDKTHTCPPCPAPELLAGPSVFLFPPKPKDVLMISRTPEVTCVVVDVSHEEPEVKFNWYVDGVEVHNAKTKPREEQYNATYRVVSVLPVLHQDWLNGKEYKCKVSNDALPKPDEETISKAKGQPREPQVYTLPPSRCELTKNQVSLSCAVKGFYPSDIAVEWESNGQPENNYKTTPPVLDSDGSFFLVSKLTVDKSRWQQGNVFSCSVMHEALHNHYTQKSLSLSP
# light: DIQMTQSPSSLSASVGDRVTITCRASQDIHKYIAWYQQKPGQAPRLLIQYTSTLQPGVPSRFSGSGSGTDYTFTISSLQPEDIATYYCLQYEQLRTFGGGTKVEIKRTVAAPSVFIFPPSDEQLKSGTASVVCLLNNFYPREAKVQWKVDNALQSGNSQESVTEQDSKDSTYSLSSTLTLSKADYEKHKVYACEVTHQGLSSPVTKSFNRGEC
# notes: Anti-human Epiregulin IgG1 with heterodimeric (knobs-into-holes) Fc variant
# Assays:
# [1] = molecular target: T1, human FcγRIIIa F (allotype F158) extracellular domain (human, UniProt P08637 17-208); test: SPR Biacore 8K+; KD for FcγRIIb divided by KD for this FcγR
# T1 construct: extracellular domain; also called hFcγRIIIaF
# T1 sequence (P08637 17-208): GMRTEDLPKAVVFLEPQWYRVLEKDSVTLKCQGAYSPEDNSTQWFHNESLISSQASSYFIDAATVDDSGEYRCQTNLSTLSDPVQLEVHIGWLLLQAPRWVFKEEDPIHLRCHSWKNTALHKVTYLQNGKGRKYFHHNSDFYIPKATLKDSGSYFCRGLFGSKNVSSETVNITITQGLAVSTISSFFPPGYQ
# Description: (§1) The extracellular domains of FcγRs were produced by the method described in WO2014104165. The interaction between the produced antibodies and human FcγRs was analyzed using Biacore 8K+by the method below. For the running buffer, 50 mM Na-Phosphate, 150 mM NaCl, and 0.05% Tween20 (pH 7.4) was used, and measurement was performed at 25° C. The sensor chip used was a Series S SA chip (GE Healthcare) onto which CaptureSelect Human Fab-kappa Kinetics Biotin Conjugate (Thermo Fisher Scientific) was immobilized. An antibody of interest was captured onto this chip, and each FcγR diluted with the running buffer was allowed to interact with it. The chip was regenerated using 10 mM Glycine-HCl (pH 1.5), and repeatedly used to capture antibodies and perform measurement. The dissociation constants KD (mol/L) of each antibody for FcγRs were calculated using Biacore Insight Evaluation Software, with a steady state affinity model for the dissociation constant for FcγRIIb and a 1:1 Langmuir binding model for the dissociation constants for the other FcγRs (Table 2).
# [2] = molecular target: T2, human FcγRIIIa V (allotype V158) extracellular domain (human, UniProt P08637 17-208); test: as above
# T2 construct: extracellular domain; also called hFcγRIIIaV
# T2 sequence (P08637 17-208 F176V): as the sequence (P08637 17-208) above, with F160V counted along it
# Description: as §1
binder,measurement,setting,value
B1,A/I ratio (KD for FcγRIIb divided by KD for each FcγR),[1],975
same,A/I ratio (KD for FcγRIIb divided by KD for each FcγR),[2],2030
